Assay results reported in US20230357348A1 (AstraZeneca / MedImmune, published 2023).
Starred links: 1 amine or outer side, 2 acyl side, 3 side chain; linkers in the order of their positions; H or OH if unused. Non-standard residues stand in square brackets, D forms with d. Groups on a side chain read outwards from the residue. No end group written: not given here. *: point of attachment. C20 diacid = O=C(O)CCCCCCCCCCCCCCCCCCC(=O)*; C18 diacid = O=C(O)CCCCCCCCCCCCCCCCC(=O)*; γGlu = O=C(O)[C@H](CCC(=O)[*:2])N[*:1]; αMeF = C[C@](N)(Cc1ccccc1)C(=O)O; AEEA = NCCOCCOCC(=O)O; Aib = CC(C)(N)C(=O)O

B1: Peptide 416 (peptide)
peptide: H[Aib]QGTFTSDVSK[αMeF]LESK([AEEA-AEEA-γGlu-C20 diacid])RAQDFVRWLEA[Aib]G-OH
modifications: N-terminus assumed
SMILES: CC(C)C[C@H](NC(=O)[C@H](Cc1c[nH]c2ccccc12)NC(=O)[C@H](CCCNC(=N)N)NC(=O)[C@@H](NC(=O)[C@H](Cc1ccccc1)NC(=O)[C@H](CC(=O)O)NC(=O)[C@H](CCC(N)=O)NC(=O)[C@H](C)NC(=O)[C@H](CCCNC(=N)N)NC(=O)[C@H](CCCCNC(=O)COCCOCCNC(=O)COCCOCCNC(=O)CC[C@H](NC(=O)CCCCCCCCCCCCCCCCCCC(=O)O)C(=O)O)NC(=O)[C@H](CO)NC(=O)[C@H](CCC(=O)O)NC(=O)[C@H](CC(C)C)NC(=O)[C@](C)(Cc1ccccc1)NC(=O)[C@H](CCCCN)NC(=O)[C@H](CO)NC(=O)[C@@H](NC(=O)[C@H](CC(=O)O)NC(=O)[C@H](CO)NC(=O)[C@@H](NC(=O)[C@H](Cc1ccccc1)NC(=O)[C@@H](NC(=O)CNC(=O)[C@H](CCC(N)=O)NC(=O)C(C)(C)NC(=O)[C@@H](N)Cc1c[nH]cn1)[C@@H](C)O)[C@@H](C)O)C(C)C)C(C)C)C(=O)N[C@@H](CCC(=O)O)C(=O)N[C@@H](C)C(=O)NC(C)(C)C(=O)NCC(=O)O
B2: Peptide 415 (peptide)
peptide: H[Aib]QGTFTSDVSK[αMeF]LESK([AEEA-AEEA-γGlu-C18 diacid])RAQDFVRWLEA[Aib]G-OH
modifications: N-terminus assumed
SMILES: CC(C)C[C@H](NC(=O)[C@H](Cc1c[nH]c2ccccc12)NC(=O)[C@H](CCCNC(=N)N)NC(=O)[C@@H](NC(=O)[C@H](Cc1ccccc1)NC(=O)[C@H](CC(=O)O)NC(=O)[C@H](CCC(N)=O)NC(=O)[C@H](C)NC(=O)[C@H](CCCNC(=N)N)NC(=O)[C@H](CCCCNC(=O)COCCOCCNC(=O)COCCOCCNC(=O)CC[C@H](NC(=O)CCCCCCCCCCCCCCCCC(=O)O)C(=O)O)NC(=O)[C@H](CO)NC(=O)[C@H](CCC(=O)O)NC(=O)[C@H](CC(C)C)NC(=O)[C@](C)(Cc1ccccc1)NC(=O)[C@H](CCCCN)NC(=O)[C@H](CO)NC(=O)[C@@H](NC(=O)[C@H](CC(=O)O)NC(=O)[C@H](CO)NC(=O)[C@@H](NC(=O)[C@H](Cc1ccccc1)NC(=O)[C@@H](NC(=O)CNC(=O)[C@H](CCC(N)=O)NC(=O)C(C)(C)NC(=O)[C@@H](N)Cc1c[nH]cn1)[C@@H](C)O)[C@@H](C)O)C(C)C)C(C)C)C(=O)N[C@@H](CCC(=O)O)C(=O)N[C@@H](C)C(=O)NC(C)(C)C(=O)NCC(=O)O
B3: Peptide 414 (peptide)
peptide: H[Aib]QGTFTSDVSK[αMeF]LDKK([AEEA-AEEA-γGlu-C18 diacid])RARDFVRWLL[Aib]E-OH
modifications: N-terminus assumed
SMILES: CC(C)C[C@H](NC(=O)[C@H](Cc1c[nH]c2ccccc12)NC(=O)[C@H](CCCNC(=N)N)NC(=O)[C@@H](NC(=O)[C@H](Cc1ccccc1)NC(=O)[C@H](CC(=O)O)NC(=O)[C@H](CCCNC(=N)N)NC(=O)[C@H](C)NC(=O)[C@H](CCCNC(=N)N)NC(=O)[C@H](CCCCNC(=O)COCCOCCNC(=O)COCCOCCNC(=O)CC[C@H](NC(=O)CCCCCCCCCCCCCCCCC(=O)O)C(=O)O)NC(=O)[C@H](CCCCN)NC(=O)[C@H](CC(=O)O)NC(=O)[C@H](CC(C)C)NC(=O)[C@](C)(Cc1ccccc1)NC(=O)[C@H](CCCCN)NC(=O)[C@H](CO)NC(=O)[C@@H](NC(=O)[C@H](CC(=O)O)NC(=O)[C@H](CO)NC(=O)[C@@H](NC(=O)[C@H](Cc1ccccc1)NC(=O)[C@@H](NC(=O)CNC(=O)[C@H](CCC(N)=O)NC(=O)C(C)(C)NC(=O)[C@@H](N)Cc1c[nH]cn1)[C@@H](C)O)[C@@H](C)O)C(C)C)C(C)C)C(=O)N[C@@H](CC(C)C)C(=O)NC(C)(C)C(=O)N[C@@H](CCC(=O)O)C(=O)O
B4: Peptide 411 (peptide)
peptide: H[Aib]QGTFTSDVSK[αMeF]LDTK([AEEA-AEEA-γGlu-C18 diacid])RAQDFVAWLEAGG-OH
modifications: N-terminus assumed
SMILES: CC(C)C[C@H](NC(=O)[C@H](Cc1c[nH]c2ccccc12)NC(=O)[C@H](C)NC(=O)[C@@H](NC(=O)[C@H](Cc1ccccc1)NC(=O)[C@H](CC(=O)O)NC(=O)[C@H](CCC(N)=O)NC(=O)[C@H](C)NC(=O)[C@H](CCCNC(=N)N)NC(=O)[C@H](CCCCNC(=O)COCCOCCNC(=O)COCCOCCNC(=O)CC[C@H](NC(=O)CCCCCCCCCCCCCCCCC(=O)O)C(=O)O)NC(=O)[C@@H](NC(=O)[C@H](CC(=O)O)NC(=O)[C@H](CC(C)C)NC(=O)[C@](C)(Cc1ccccc1)NC(=O)[C@H](CCCCN)NC(=O)[C@H](CO)NC(=O)[C@@H](NC(=O)[C@H](CC(=O)O)NC(=O)[C@H](CO)NC(=O)[C@@H](NC(=O)[C@H](Cc1ccccc1)NC(=O)[C@@H](NC(=O)CNC(=O)[C@H](CCC(N)=O)NC(=O)C(C)(C)NC(=O)[C@@H](N)Cc1c[nH]cn1)[C@@H](C)O)[C@@H](C)O)C(C)C)[C@@H](C)O)C(C)C)C(=O)N[C@@H](CCC(=O)O)C(=O)N[C@@H](C)C(=O)NCC(=O)NCC(=O)O
B5: Peptide 412 (peptide)
peptide: H[Aib]QGTFTSDVSK[αMeF]LDTK([AEEA-AEEA-γGlu-C20 diacid])RAQDFVAWLEAGG-OH
modifications: N-terminus assumed
SMILES: CC(C)C[C@H](NC(=O)[C@H](Cc1c[nH]c2ccccc12)NC(=O)[C@H](C)NC(=O)[C@@H](NC(=O)[C@H](Cc1ccccc1)NC(=O)[C@H](CC(=O)O)NC(=O)[C@H](CCC(N)=O)NC(=O)[C@H](C)NC(=O)[C@H](CCCNC(=N)N)NC(=O)[C@H](CCCCNC(=O)COCCOCCNC(=O)COCCOCCNC(=O)CC[C@H](NC(=O)CCCCCCCCCCCCCCCCCCC(=O)O)C(=O)O)NC(=O)[C@@H](NC(=O)[C@H](CC(=O)O)NC(=O)[C@H](CC(C)C)NC(=O)[C@](C)(Cc1ccccc1)NC(=O)[C@H](CCCCN)NC(=O)[C@H](CO)NC(=O)[C@@H](NC(=O)[C@H](CC(=O)O)NC(=O)[C@H](CO)NC(=O)[C@@H](NC(=O)[C@H](Cc1ccccc1)NC(=O)[C@@H](NC(=O)CNC(=O)[C@H](CCC(N)=O)NC(=O)C(C)(C)NC(=O)[C@@H](N)Cc1c[nH]cn1)[C@@H](C)O)[C@@H](C)O)C(C)C)[C@@H](C)O)C(C)C)C(=O)N[C@@H](CCC(=O)O)C(=O)N[C@@H](C)C(=O)NCC(=O)NCC(=O)O

Tests used:
[1] = molecular target: human GLP-1 receptor (hGLP-1R) (human, UniProt P43220 24-463); assay: cell-based or functional assay
[2] = molecular target: human glucagon receptor (hGCGR) (human, UniProt P47871 26-477); assay: cell-based or functional assay
Chain of human glucagon receptor (hGCGR) (P47871 26-477): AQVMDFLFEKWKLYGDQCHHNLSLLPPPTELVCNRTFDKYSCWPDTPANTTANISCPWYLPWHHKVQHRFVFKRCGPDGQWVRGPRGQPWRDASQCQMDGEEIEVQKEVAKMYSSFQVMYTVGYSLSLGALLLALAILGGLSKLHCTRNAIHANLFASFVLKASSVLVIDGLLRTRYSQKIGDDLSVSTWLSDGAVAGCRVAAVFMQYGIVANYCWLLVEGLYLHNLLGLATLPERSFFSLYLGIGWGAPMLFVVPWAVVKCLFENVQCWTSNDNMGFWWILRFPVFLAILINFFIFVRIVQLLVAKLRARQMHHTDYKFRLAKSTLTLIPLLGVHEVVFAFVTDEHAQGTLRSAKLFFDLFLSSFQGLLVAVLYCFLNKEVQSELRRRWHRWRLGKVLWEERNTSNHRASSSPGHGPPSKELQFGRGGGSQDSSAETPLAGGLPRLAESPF

Row | Binder | hGLP-1R EC50 (pM) [1] | hGluc-R EC50 (pM) [2]
1 | B1 | 67.7 pM | 581 pM
2 | B2 | 14.7 pM | 301 pM
3 | B3 | 32.3 pM | 26.9 pM
4 | H[Aib]QGTFTSDVSK[αMeF]LDTK([AEEA-AEEA-γGlu-γGlu-C20 diacid])RAQDFVAWLEAGG-OH [Peptide 413] | 406 pM | 1020 pM
5 | B4 | 98.1 pM | 378 pM
6 | B5 | 186 pM | 397 pM
